# Assay results: patent US20150133367A1 (University of Pennsylvania, published 2015)
# Values joined by “and” are separate entries in the source; they are usually repeats but may differ in a detail not shown here. Equal entries are not always repeated. Where two headings read alike, the source gives them in different places. Positions of bridges follow the written chain, without caps; N, C: chain ends. Non-standard residues stand in square brackets, D forms with d. No end group written: not given here. alpha,alpha'‑meta‑xylylene = alpha,alpha'-meta-xylylene linker (from a,a'-dibromo-meta-xylene) bridging two cysteines via bis-thioether; βAla = NCCC(=O)O
# T1: Cathepsin K (UniProt P43235 115-329)
# T1 sequence (looked up): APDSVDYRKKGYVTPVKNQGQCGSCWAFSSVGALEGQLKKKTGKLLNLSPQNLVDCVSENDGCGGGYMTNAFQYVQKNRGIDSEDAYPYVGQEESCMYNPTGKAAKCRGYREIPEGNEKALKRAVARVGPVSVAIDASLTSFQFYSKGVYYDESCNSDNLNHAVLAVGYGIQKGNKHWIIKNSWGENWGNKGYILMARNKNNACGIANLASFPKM
# T2: Calpain-1
# T2 chain 1: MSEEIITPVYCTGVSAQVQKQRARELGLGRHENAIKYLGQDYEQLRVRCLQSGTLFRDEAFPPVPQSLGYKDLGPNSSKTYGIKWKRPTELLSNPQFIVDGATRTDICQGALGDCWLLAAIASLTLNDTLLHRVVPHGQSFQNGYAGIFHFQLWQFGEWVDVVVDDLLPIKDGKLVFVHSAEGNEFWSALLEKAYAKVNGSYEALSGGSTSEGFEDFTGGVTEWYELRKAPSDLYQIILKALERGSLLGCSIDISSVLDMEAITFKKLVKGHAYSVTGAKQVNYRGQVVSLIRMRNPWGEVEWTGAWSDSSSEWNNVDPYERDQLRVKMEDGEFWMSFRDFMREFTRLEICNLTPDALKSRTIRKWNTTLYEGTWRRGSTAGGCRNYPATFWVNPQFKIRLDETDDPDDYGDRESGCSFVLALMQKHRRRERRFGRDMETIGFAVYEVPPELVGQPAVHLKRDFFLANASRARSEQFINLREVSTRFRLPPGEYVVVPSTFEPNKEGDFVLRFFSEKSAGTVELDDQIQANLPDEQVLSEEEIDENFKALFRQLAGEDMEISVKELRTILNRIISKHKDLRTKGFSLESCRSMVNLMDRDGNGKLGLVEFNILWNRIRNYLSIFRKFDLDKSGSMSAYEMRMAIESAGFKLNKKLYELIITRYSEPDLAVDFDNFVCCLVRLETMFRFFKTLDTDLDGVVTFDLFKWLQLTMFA
# T2 chain 2: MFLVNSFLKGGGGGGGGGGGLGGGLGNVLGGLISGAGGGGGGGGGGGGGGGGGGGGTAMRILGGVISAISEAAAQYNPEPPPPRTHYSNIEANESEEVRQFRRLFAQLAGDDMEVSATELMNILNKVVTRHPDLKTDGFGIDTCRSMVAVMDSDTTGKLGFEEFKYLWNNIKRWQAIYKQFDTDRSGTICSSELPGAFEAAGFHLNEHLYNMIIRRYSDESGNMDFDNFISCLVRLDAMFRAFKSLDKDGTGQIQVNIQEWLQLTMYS
# Columns and labels:
# Assay in all cases: fluorescence-based enzyme inhibition assay
# Cathepsin K [1] = target: T1, Cathepsin K
# Calpain-1 [2] = target: T2, Calpain-1
# Cathepsin L [3] = target: T3, Cathepsin L (UniProt P07711 114-333)
# Cathepsin S [4] = target: T4, Cathepsin S (UniProt P25774 115-331)
# Cathepsin S [5] = target: T4, Cathepsin S; remark: listed apart in the source
# Cathepsin L [6] = target: T3, Cathepsin L; remark: listed apart in the source
# Calpain-1 [7] = target: T2, Calpain-1
# Cathepsin K [8] = target: T1, Cathepsin K; remark: listed apart in the source
# Cathepsin S [9] = target: T4, Cathepsin S; remark: listed apart in the source
# T4 sequence (P25774 115-331 limits assumed): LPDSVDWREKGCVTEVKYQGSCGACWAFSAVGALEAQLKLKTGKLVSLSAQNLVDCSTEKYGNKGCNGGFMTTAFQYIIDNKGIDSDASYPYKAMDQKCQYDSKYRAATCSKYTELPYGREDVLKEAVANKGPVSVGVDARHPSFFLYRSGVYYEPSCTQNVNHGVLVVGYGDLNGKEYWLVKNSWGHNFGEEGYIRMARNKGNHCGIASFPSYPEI
# T3 sequence (P07711 114-333 limits assumed): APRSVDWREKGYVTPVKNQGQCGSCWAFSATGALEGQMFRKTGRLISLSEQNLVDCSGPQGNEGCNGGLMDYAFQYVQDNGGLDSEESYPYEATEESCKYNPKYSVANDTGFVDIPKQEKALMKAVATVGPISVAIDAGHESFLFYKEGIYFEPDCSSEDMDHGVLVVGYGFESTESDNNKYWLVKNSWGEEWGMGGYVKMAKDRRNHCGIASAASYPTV
Ki (Calpain-1 [2]),Ki (Cathepsin L [3]),Ki (Cathepsin S [4]),Binder,further results
,,,"SCEVVCKMTGLKVPL (linker 2-6 via alpha,alpha'‑meta‑xylylene, 15-mer) [SCEVVCKMTGLKVPL (SEQ ID NO:56)]",Ki (Cathepsin K [1]): 22.7 µM
,,,"SCESVCKPWGP (linker 2-6 via alpha,alpha'‑meta‑xylylene, also called compound (IIa); quadruple mutant) [SCESVCKPWGP (SEQ ID NO:50)]",Ki (Cathepsin K [1]): 17.2 µM
45.3 µM,,,"PPPKYCELLC (linker 6-10 via alpha,alpha'‑meta‑xylylene) [PPPKYCELLC (SEQ ID NO:73)]",
5.3 µM,69.6 µM,31.3 µM,"EVTIPPKYCELLC (linker 9-13 via alpha,alpha'‑meta‑xylylene) [EVTIPPKYCELLC (SEQ ID NO:69)]",
3.6 µM,,31.5 µM,"LGKREVTIPPKYCELLC (linker 13-17 via alpha,alpha'‑meta‑xylylene, 17 amino acids) [LGKREVTIPPKYCELLC (SEQ ID NO:67)]",
1.3 µM,10.7 µM,41.5 µM,"LFKREVTIPPKYCELLC (linker 13-17 via alpha,alpha'‑meta‑xylylene, 17 amino acids) [LFKREVTIPPKYCELLC (SEQ ID NO:68)]",
10.7 µM,,,"[βAla]AIPPKYCELLC (linker 8-12 via alpha,alpha'‑meta‑xylylene) [(b-Ala)AIPPKYCELLC (SEQ ID NO:70)]",
5.09 µM,,,"IXPKYCELLC (Cys6 and Cys10 (i,i+4) linked by alpha,alpha'-meta-xylylene; residue 2 pf5 = pentafluorophenylalanine) [I(pf5)PKYCELLC (SEQ ID NO:77)]",
27.6 µM,,,"DPPKYCELLC (linker 6-10 via alpha,alpha'‑meta‑xylylene) [DPPKYCELLC (SEQ ID NO:71)]",
10.2 µM,39.9 µM,50.2 µM,"IPPKYCELLC (linker 6-10 via alpha,alpha'‑meta‑xylylene) [IPPKYCELLC (SEQ ID NO:65)]",
11 µM,38.1 µM,46.3 µM,"LPPKYCELLC (linker 6-10 via alpha,alpha'‑meta‑xylylene) [LPPKYCELLC (SEQ ID NO:74)]",
65.6 µM,12.5 µM,26.1 µM,"APPKYCELLC (linker 6-10 via alpha,alpha'‑meta‑xylylene) [APPKYCELLC (SEQ ID NO:72)]",
28.9 µM,12.5 µM,15.6 µM,"IPPKYCALLC (linker 6-10 via alpha,alpha'‑meta‑xylylene) [IPPKYCALLC (SEQ ID NO:84)]",
,8.12 µM,16.8 µM,"IPPKACELLC (linker 6-10 via alpha,alpha'‑meta‑xylylene) [IPPKACELLC (SEQ ID NO:81)]",
17.7 µM,24.6 µM,20.7 µM,"IPPAYCELLC (linker 6-10 via alpha,alpha'‑meta‑xylylene) [IPPAYCELLC (SEQ ID NO:78)]",
30.9 µM,21.4 µM,13.9 µM,"IPPKYCEALC (linker 6-10 via alpha,alpha'‑meta‑xylylene) [IPPKYCEALC (SEQ ID NO:86)]",
5.3 µM,37.9 µM,35.9 µM,"IPPRYCELLC (linker 6-10 via alpha,alpha'‑meta‑xylylene) [IPPRYCELLC (SEQ ID NO:80)]",
,8.8 µM,,"IPPRWCELLC (linker 6-10 via alpha,alpha'‑meta‑xylylene) [IPPRWCELLC (SEQ ID NO:91)]",

Ki (Calpain-1 [2]),Ki (Cathepsin L [3]),Ki (Cathepsin S [4]),Binder,further results
11 µM,66.2 µM,21.4 µM,"IPPKYCEQLC (linker 6-10 via alpha,alpha'‑meta‑xylylene, also called compound (Ia)) [IPPKYCEQLC (SEQ ID NO:85)]",
,,,"FFEFFCSLMCS (linker 6-10 via alpha,alpha'‑meta‑xylylene) [FFEFFCSLMCS (SEQ ID NO:27)]",Ki (Cathepsin S [5]): 13.1 µM
27.9 µM,,,"IPPKYCELFC (linker 6-10 via alpha,alpha'‑meta‑xylylene) [IPPKYCELFC (SEQ ID NO:88)]",
35 µM,,,"QPPKYCELLC (linker 6-10 via alpha,alpha'‑meta‑xylylene) [QPPKYCELLC (SEQ ID NO:76)]",
,,,"TSEEVCSLMCS (linker 6-10 via alpha,alpha'‑meta‑xylylene) [TSEEVCSLMCS (SEQ ID NO:16)]",Ki (Cathepsin L [6]): 16.7 µM; Ki (Cathepsin S [5]): 52.1 µM
,,,"WWEWVCSLMCS (linker 6-10 via alpha,alpha'‑meta‑xylylene, triple mutant) [WWEWVCSLMCS (SEQ ID NO:25)]",Ki (Calpain-1 [7]): 85.5 µM; Ki (Cathepsin L [6]): 16.1 µM; Ki (Cathepsin S [5]): 6.74 µM; Ki (Cathepsin K [8]): 19.5 µM
,,,"WWEWWCSLMCS (linker 6-10 via alpha,alpha'‑meta‑xylylene, quadruple mutant; also called compound (IVa)) [WWEWWCSLMCS (SEQ ID NO:26)]",Ki (Calpain-1 [7]): 66.7 µM; Ki (Cathepsin L [6]): 28.1 µM; Ki (Cathepsin S [5]): 1.23 µM; Ki (Cathepsin K [8]): 37.9 µM
,,,"TSEEWCSLMCS (linker 6-10 via alpha,alpha'‑meta‑xylylene, single mutant) [TSEEWCSLMCS (SEQ ID NO:21)]",Ki (Cathepsin L [6]): 105 µM; Ki (Cathepsin S [5]): 80.4 µM
,,,"WSEEVCSLMCS (linker 6-10 via alpha,alpha'‑meta‑xylylene, single mutant) [WSEEVCSLMCS (SEQ ID NO:17)]",Ki (Calpain-1 [7]): 108 µM; Ki (Cathepsin L [6]): 76 µM; Ki (Cathepsin S [5]): 51 µM
,,,"TWEEVCSLMCS (linker 6-10 via alpha,alpha'‑meta‑xylylene, single mutant) [TWEEVCSLMCS (SEQ ID NO:18)]",Ki (Cathepsin L [6]): 93.9 µM; Ki (Cathepsin S [5]): 29.7 µM; Ki (Cathepsin K [8]): 67.5 µM
,,,"TSEWVCSLMCS (linker 6-10 via alpha,alpha'‑meta‑xylylene, single mutant) [TSEWVCSLMCS (SEQ ID NO:20)]",Ki (Cathepsin L [6]): 57.1 µM; Ki (Cathepsin S [5]): 33.1 µM
,,,"TWEWVCSLMCS (linker 6-10 via alpha,alpha'‑meta‑xylylene, double mutant) [TWEWVCSLMCS (SEQ ID NO:23)]",Ki (Calpain-1 [7]): 88.4 µM; Ki (Cathepsin L [6]): 33.8 µM; Ki (Cathepsin S [5]): 14.3 µM; Ki (Cathepsin K [8]): 65.7 µM
,,,"SCESVCKPWGPKVP (linker 2-6 via alpha,alpha'‑meta‑xylylene, 14-mer) [SCESVCKPWGPKVP (SEQ ID NO:55)]",Ki (Cathepsin K [1]): 16.2 µM
95.6 µM,,,"IPPCYRECLA (linker 4-8 via alpha,alpha'‑meta‑xylylene) [IPPCYRECLA (SEQ ID NO:64)]",
,,,"SCESVCKMTGL (linker 2-6 via alpha,alpha'‑meta‑xylylene) [SCESVCKMTGL (SEQ ID NO:37)]",Ki (Cathepsin S [9]): 10.8 µM; Ki (Cathepsin K [1]): > 100 µM
,,,"SCEVVCKMTGP (linker 2-6 via alpha,alpha'‑meta‑xylylene) [SCEVVCKMTGP (SEQ ID NO:44)]",Ki (Cathepsin S [9]): 27.8 µM; Ki (Cathepsin K [1]): 1.34 µM and 0.659 µM
7.5 µM,5.1 µM,,"IPPKYRCLLAC (linker 7-11 via alpha,alpha'‑meta‑xylylene) [IPPKYRCLLAC (SEQ ID NO:66)]",
,,,"SCEEVCKPGGP (linker 2-6 via alpha,alpha'‑meta‑xylylene) [SCEEVCKPGGP (SEQ ID NO:47)]",Ki (Cathepsin K [1]): > 100 µM
